{
  "source": "patent US20040219615A1",
  "about": "(YEDA RESEARCH AND DEVELOPMENT, published 2004)",
  "binders": {"B1": {"name": "clone #84 (other, UniProt Q99675 1-332, looked up)", "chain": "MAAVFLVTLYEYSPLFYIAVVFTCFIVTTGLVLGWFGWDVPVILRNSEETQFSTRVFKKQMRQVKNPFGLEITNPSSASITTGITLTTDCLEDSLLTCYWGCSVQKLYEALQKHVYCFRISTPQALEDALYSEYLYQEQYFIKKDSKEEIYCQLPRDTKIEDFGTVPRSRYPLVALLTLADEDDREIYDIISMVSVIHIPDRTYKLSCRILYQYLLLAQGQFHDLKQLFMSANNNFTPSNNSSSEEKNTDRSLLEKVGLSESEVEPSEENSKDCVVCQNGTVNWVLLPCRHTCLCDGCVKYFQQCPMCRQFVQESFALCSQKEQDKDKPKTL", "notes": "Isolated from the B-cell cDNA library with full-length RAP-2 as bait; The whole CGR19 entry is named; also called CGR19; Cell Growth Regulatory protein CGR19"}},
  "key": {"NIK": {"biological_target": "NIK (UniProt Q99558 1-947)", "sequence (Q99558 whole entry)": "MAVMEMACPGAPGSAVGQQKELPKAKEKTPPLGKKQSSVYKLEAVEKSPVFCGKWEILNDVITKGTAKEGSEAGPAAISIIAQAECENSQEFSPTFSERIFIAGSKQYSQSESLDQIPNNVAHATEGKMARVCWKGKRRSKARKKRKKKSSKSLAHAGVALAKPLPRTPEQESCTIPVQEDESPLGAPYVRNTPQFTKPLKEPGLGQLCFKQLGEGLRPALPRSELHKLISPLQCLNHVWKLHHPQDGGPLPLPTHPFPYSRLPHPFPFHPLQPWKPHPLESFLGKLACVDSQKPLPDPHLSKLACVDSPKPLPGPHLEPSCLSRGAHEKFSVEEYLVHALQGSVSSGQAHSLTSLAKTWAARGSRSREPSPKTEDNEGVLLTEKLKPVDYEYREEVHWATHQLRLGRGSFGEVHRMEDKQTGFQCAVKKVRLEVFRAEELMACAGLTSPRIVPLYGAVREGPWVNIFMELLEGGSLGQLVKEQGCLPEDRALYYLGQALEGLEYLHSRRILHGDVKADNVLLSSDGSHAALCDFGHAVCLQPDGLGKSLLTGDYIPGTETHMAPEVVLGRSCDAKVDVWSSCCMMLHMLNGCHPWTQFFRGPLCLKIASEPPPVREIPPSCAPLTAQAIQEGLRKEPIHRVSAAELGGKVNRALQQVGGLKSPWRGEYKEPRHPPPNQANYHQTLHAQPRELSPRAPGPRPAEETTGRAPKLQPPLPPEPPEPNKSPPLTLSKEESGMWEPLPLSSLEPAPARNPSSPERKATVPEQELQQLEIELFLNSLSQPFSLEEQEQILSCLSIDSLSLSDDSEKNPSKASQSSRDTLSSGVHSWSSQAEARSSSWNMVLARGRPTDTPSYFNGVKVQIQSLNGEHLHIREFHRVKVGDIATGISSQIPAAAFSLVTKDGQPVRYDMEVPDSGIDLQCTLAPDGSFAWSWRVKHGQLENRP", "assay": "yeast two-hybrid test"}, "[1]": {"biological_target": "T1, TIP60 (histone acetyltransferase) (UniProt Q92993 1-513, limits assumed)", "T1 sequence (Q92993 whole entry)": "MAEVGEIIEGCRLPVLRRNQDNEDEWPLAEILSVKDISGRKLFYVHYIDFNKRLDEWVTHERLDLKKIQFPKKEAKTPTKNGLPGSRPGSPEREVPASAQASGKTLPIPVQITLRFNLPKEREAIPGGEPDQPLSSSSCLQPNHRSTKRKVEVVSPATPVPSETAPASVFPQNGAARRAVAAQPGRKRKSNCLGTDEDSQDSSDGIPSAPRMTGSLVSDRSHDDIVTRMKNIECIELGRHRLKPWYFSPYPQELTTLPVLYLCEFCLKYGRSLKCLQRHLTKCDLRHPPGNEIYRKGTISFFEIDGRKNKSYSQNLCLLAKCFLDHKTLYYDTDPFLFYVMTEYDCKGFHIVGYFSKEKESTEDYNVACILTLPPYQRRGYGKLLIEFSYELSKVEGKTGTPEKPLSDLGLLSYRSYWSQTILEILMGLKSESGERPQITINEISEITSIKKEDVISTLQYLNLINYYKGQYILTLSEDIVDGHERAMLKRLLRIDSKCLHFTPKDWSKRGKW", "assay": "yeast two-hybrid test"}, "TRAF2": {"biological_target": "T2, TRAF2 (UniProt Q12933 1-501, limits assumed)", "T2 sequence (looked up)": "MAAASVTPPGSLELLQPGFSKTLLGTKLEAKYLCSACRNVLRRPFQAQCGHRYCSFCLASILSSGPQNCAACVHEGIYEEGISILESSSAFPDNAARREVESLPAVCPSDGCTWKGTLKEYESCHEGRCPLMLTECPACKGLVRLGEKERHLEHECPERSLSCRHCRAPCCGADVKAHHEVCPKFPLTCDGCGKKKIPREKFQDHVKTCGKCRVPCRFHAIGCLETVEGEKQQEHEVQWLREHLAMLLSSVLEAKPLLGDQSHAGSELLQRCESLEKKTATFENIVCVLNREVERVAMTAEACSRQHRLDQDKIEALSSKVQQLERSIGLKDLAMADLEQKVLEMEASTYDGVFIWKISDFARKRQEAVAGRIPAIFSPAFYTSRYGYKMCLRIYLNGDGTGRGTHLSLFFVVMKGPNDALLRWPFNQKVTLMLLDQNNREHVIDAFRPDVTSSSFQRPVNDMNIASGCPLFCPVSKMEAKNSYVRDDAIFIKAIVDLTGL", "assay": "yeast two-hybrid test"}, "[2]": {"biological_target": "T3, RIP (receptor interacting protein) (human, UniProt Q13546 1-671)", "T3 construct": "mature; Full-length RIP was the two-hybrid bait; In co-immunoprecipitation it was pulled down with anti-FLAG mAbs (FLAG tag implied); also called RIP protein", "T3 sequence (looked up)": "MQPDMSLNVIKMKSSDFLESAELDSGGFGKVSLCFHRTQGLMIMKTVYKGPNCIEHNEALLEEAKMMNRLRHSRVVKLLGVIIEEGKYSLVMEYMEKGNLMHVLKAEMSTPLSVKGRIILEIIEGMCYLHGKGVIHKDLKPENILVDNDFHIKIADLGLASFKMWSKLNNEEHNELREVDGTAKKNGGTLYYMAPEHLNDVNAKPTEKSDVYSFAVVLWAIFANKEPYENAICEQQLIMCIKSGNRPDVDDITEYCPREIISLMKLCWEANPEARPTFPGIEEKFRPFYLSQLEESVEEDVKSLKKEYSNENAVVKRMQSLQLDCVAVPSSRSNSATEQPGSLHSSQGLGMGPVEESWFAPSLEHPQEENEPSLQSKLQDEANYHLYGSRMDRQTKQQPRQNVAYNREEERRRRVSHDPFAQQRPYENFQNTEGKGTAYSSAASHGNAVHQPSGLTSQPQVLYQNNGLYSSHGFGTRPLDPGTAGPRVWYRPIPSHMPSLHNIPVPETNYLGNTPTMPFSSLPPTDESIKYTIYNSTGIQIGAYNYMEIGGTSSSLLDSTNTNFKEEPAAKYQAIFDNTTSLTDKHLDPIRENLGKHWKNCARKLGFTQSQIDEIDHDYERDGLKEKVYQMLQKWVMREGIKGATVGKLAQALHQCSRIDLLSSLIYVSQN", "assay": "yeast two-hybrid test"}, "[3]": {"biological_target": "T4, RAP-2 (RIP-associated protein-2), full-length (human, UniProt Q9Y6K9 1-419)", "T4 construct": "Full-length RAP-2; The RIP screen first yielded a partial clone of about 1.5 Kb; also called 303; RAP-303", "assay": "deletion analysis, self-association of RAP-2"}, "[4]": {"biological_target": "T1, TIP60 (histone acetyltransferase)", "assay": "deletion analysis of RAP-2"}, "[5]": {"biological_target": "T4, RAP-2 (RIP-associated protein-2), …", "assay": "binding assay tests (two-hybrid)"}, "clone #84": {"biological_target": "B1", "assay": "yeast two-hybrid test"}},
  "data": [
    {"binder": "B1", "values": [
      {"measurement": "binding result", "setting": "NIK", "result": "no binding"},
      {"measurement": "binding result", "setting": "[1]", "result": "no binding"},
      {"measurement": "binding result", "setting": "TRAF2", "result": "no binding"},
      {"measurement": "binding result", "setting": "[2]", "result": "no binding"}
    ]},
    {"binder": "RAP-2 deletion fragment containing amino acids 218-416 (other) QAASEEKRKLAQLQVAYHQLFQEYDNHIKSSVVGSERKRGMQLEDLKQQLQQAEEALVAKQEVIDKLKEEAEQHKIVMETVPVLKAQADIYKADFQAERQAREKLAEKKELLQEQLEQLQREYSKLKASCQESARIEDMRKRHVEVSQAPLPPAPAYLSSPLALPSQRRSPPEEPPDFCCPKCQYQAPDMDTLQIHVME", "values": [
      {"measurement": "binding result", "setting": "[3]", "result": "binds"}
    ]},
    {"binder": "RAP-2 deletion fragment spanning amino acids 95-309 (other) CKFQEARKLVERLGLEKLDLKRQKEQALREVEHLKRCQQQMAEDKASVKAQVTSLLGELQESQSRLEAATKECQALEGRARAASEQARQLESEREALQQQHSVQVDQLRMQGQSVEAALRMERQAASEEKRKLAQLQVAYHQLFQEYDNHIKSSVVGSERKRGMQLEDLKQQLQQAEEALVAKQEVIDKLKEEAEQHKIVMETVPVLKAQADIYK", "values": [
      {"measurement": "binding result", "setting": "[4]", "result": "no binding"}
    ]},
    {"binder": "p55-R (p55 TNF receptor) (receptor, UniProt P19438 235-455, looked up, also called TNFR-I) RYQRWKSKLYSIVCGKSTPEKEGELEGTTTKPLAPNPSFSPTPGFTPTLGFSPVPSSTFTSSSTYTPGDCPNFAAPRREVAPPYQGADPILATALASDPIPNPLQKWEDSAHKPQSLDTDDPATLYAVVENVPPLRWKEFVRRLGLSDHEIDRLELQNGRCLREAQYSMLATWRRRTPRREATLELLGRVLRDMDLLGCLEDIEEALCGPAALPPAPSLLR", "values": [
      {"measurement": "binding result", "setting": "[5]", "result": "no binding"}
    ]},
    {"binder": "RAP-2 deletion fragment containing amino acids 1-264 (other) MNRHLWKSQLCEMVQPSGGPAADQDVLGEESPLGKPAMLHLPSEQGAPETLQRCLEENQELRDAIRQSNQILRERCEELLHFQASQREEKEFLMCKFQEARKLVERLGLEKLDLKRQKEQALREVEHLKRCQQQMAEDKASVKAQVTSLLGELQESQSRLEAATKECQALEGRARAASEQARQLESEREALQQQHSVQVDQLRMQGQSVEAALRMERQAASEEKRKLAQLQVAYHQLFQEYDNHIKSSVVGSERKRGMQLEDLK", "values": [
      {"measurement": "binding result", "setting": "[3]", "result": "binds"}
    ]},
    {"binder": "p75-R (p75 TNF receptor) (receptor, UniProt P20333 287-461, looked up) VKKKPLCLQREAKVPHLPADKARGTQGPEQQHLLITAPSSSSSSLESSASALDRRAPTRNQPQAPGVEASGAGEARASTGSSDSSPGGHGTQVNVTCIVNVCSSSDHSSQCSSQASSTMGDTDSSPSESPKDEQVPFSKEECAFRSQLETPETLLGSTEEKPLPLGVPDAGMKPS", "values": [
      {"measurement": "binding result", "setting": "[5]", "result": "no binding"}
    ]},
    {"binder": "TRADD (other, UniProt Q15628 1-312, looked up) MAAGQNGHEEWVGSAYLFVESSLDKVVLSDAYAHPQQKVAVYRALQAALAESGGSPDVLQMLKIHRSDPQLIVQLRFCGRQPCGRFLRAYREGALRAALQRSLAAALAQHSVPLQLELRAGAERLDALLADEERCLSCILAQQPDRLRDEELAELEDALRNLKCGSGARGGDGEVASAPLQPPVPSLSEVKPPPPPPPAQTFLFQGQPVVNRPLSLKDQQTFARSVGLKWRKVGRSLQRGCRALRDPALDSLAYEYEREGLYEQAFQLLRRFVQAEGRRATLQRLVEALEENELTSLAEDLLGLTDPNGGLA", "values": [
      {"measurement": "binding result", "setting": "clone #84", "result": "no binding"},
      {"measurement": "binding result", "setting": "[5]", "result": "no binding"}
    ]},
    {"binder": "MORT-1 (other, UniProt Q13158 1-208, looked up, also called FADD) MDPFLVLLHSVSSSLSSSELTELKFLCLGRVGKRKLERVQSGLDLFSMLLEQNDLEPGHTELLRELLASLRRHDLLRRVDDFEAGAAAGAAPGEEDLCAAFNVICDNVGKDWRRLARQLKVSDTKIDSIEDRYPRNLTERVRESLRIWKNTEKENATVAHLVGALRSCQMNLVADLVQEVQQARDLQNRSGAMSPMSWNSDASTSEAS", "values": [
      {"measurement": "binding result", "setting": "clone #84", "result": "no binding"},
      {"measurement": "binding result", "setting": "[5]", "result": "no binding"}
    ]}
  ]
}
